Laboratory results taken from patent US20050203007A1 (REGENTS OF THE UNIVERSITY OF MICHIGAN, published 2005).
Like-named read-outs stand apart in the source and are kept apart here.

What was measured:
secreted, soluble furin [1] = molecular target: T1, secreted, soluble furin (human, UniProt P09958 108-715, limits assumed); experiment: enzyme inhibition, purified variant
T1 construct: Secreted, soluble construct; also called human furin
Protocol: (§1) Affinities of eglin variants with secreted, soluble Kex2 (hereafter “Kex2”; Brenner, C. and Fuller, R. S. (1992) Proc. Natl. Acad. Sci. USA 89: 922-926) and secreted, soluble furin (hereafter, “furin”; Bravo, D. A. et al (1994) J. Biol. Chem. 269: 25830-25837; and Komiyama & Fuller (2000) Biochemistry 39: 15156-15165) were measured by incubating variants with the enzymes (˜0.5 to 2.0 nM) for 45 min to 1 h at 21° C. in one of two enzyme assay buffers. For Kex2, the buffer was 200 mM Bistris (pH 7.27) containing 1 mM CaCl₂ and 0.1% Triton X-100; and for furin, the buffer was 20 mM NaMES (pH 7.0) containing 1 mM CaCl₂ and 0.1% Triton X-100 for furin. 100 to 200 μL aliquots of reaction mixtures were transferred into triplicate wells of opaque 96 well plates (Costar), and residual enzyme activity was measured with an fmax fluorescence micro plate reader (Molecular Devices) by monitoring hydrolysis of a fluorogenic substrate Boc-Arg-Val-Arg-Arg-MCA. Data were graphically analyzed (KaleidaGraph) with an equation developed by Green and Work (1953). Site-directed mutagenesis at P2 and P6 of eglin c generated temporary inhibitors (Table 3) and exhausted possibility to improve affinity further with this approach.

secreted, soluble Kex2 [2] = molecular target: T2, secreted, soluble Kex2 (Saccharomyces cerevisiae, UniProt P13134 114-613, limits assumed); experiment: enzyme inhibition, purified variant
T2 construct: Secreted, soluble construct; also called kexin
T2 sequence (looked up): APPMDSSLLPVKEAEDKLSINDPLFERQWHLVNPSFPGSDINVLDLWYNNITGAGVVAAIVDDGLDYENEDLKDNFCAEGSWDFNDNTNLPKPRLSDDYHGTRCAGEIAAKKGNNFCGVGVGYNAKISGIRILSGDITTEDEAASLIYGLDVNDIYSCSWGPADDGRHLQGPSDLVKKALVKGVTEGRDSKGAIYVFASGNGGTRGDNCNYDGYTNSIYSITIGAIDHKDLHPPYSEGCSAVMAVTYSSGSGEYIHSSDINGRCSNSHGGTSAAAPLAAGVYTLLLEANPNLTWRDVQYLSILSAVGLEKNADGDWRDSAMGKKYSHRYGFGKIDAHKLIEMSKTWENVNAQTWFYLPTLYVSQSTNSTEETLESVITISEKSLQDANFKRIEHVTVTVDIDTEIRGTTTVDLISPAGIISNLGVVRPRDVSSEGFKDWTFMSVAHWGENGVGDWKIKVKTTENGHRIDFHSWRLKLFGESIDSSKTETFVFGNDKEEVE
Protocol: as §1

secreted, soluble furin [3] = molecular target: T1, secreted, soluble furin; experiment: enzyme inhibition, purified variant; remark: listed apart in the source
human PC7 = molecular target: T3, human PC7 (human, UniProt Q16549 142-667, limits assumed); experiment: enzyme inhibition, purified variant
T3 sequence (looked up): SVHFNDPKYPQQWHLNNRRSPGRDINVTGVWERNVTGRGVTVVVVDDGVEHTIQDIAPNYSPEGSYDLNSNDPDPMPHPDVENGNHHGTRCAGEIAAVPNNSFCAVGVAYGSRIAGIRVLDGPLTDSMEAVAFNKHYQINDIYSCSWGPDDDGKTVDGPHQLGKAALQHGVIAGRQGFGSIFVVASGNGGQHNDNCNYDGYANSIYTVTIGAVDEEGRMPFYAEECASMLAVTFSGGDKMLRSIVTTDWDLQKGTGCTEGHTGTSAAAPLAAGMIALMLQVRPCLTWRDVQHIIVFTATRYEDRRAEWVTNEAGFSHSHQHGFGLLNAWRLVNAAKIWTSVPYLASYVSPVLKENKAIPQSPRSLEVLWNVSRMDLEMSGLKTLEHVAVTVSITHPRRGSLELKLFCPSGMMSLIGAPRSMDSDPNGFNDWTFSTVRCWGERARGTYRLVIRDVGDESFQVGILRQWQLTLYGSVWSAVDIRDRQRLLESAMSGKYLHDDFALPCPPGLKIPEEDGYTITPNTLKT

secreted, soluble Kex2 [4] = molecular target: T2, secreted, soluble Kex2; experiment: enzyme inhibition, purified variant; remark: listed apart in the source
secreted, soluble furin [5] = molecular target: T1, secreted, soluble furin; experiment: estimated from koff
Protocol: (§2) In some aspects of the present invention, biological application of the eglin c variants of the present invention as inhibitors of processing in vivo depends upon the rate of binding to target enzymes, where it is critical. Therefore, the rate of action of eglin variants with Kex2 and furin was examined by incubating 5×10⁻¹⁰ M enzyme with inhibitor at molar ratios of inhibitor to enzyme ranging from 10 to 80. […] The relationship between kobs and inhibitor concentration was linear. The values of kₒₙ were determined from the slope of such curves, and dissociation rate constants (koff) were calculated (koff=kₒₙ/Kₐ). For R4R1-eglin, koff was calculated to be 2×10⁻⁴s⁻¹ for Kex2, and 3×10⁻⁴s⁻¹ for furin. […] Similarly, the t_{1/2} of the complex of M4R1-eglin with Kex2 was estimated to be 3 h. For complex of R4K1-eglin with furin, koff was calculated to be 2×10⁻⁴s⁻¹ implying that the koff and t_{1/2} for this complex are similar to those for the complex of R4R1-eglin with furin.

secreted, soluble Kex2 [6] = molecular target: T2, secreted, soluble Kex2; experiment: estimated from koff
Protocol: as §2

secreted, soluble furin [7] = molecular target: T1, secreted, soluble furin; experiment: equilibrium enzyme inhibition
secreted, soluble Kex2 [8] = molecular target: T2, secreted, soluble Kex2; experiment: equilibrium enzyme inhibition

T1 sequence (P09958 108-715 limits assumed): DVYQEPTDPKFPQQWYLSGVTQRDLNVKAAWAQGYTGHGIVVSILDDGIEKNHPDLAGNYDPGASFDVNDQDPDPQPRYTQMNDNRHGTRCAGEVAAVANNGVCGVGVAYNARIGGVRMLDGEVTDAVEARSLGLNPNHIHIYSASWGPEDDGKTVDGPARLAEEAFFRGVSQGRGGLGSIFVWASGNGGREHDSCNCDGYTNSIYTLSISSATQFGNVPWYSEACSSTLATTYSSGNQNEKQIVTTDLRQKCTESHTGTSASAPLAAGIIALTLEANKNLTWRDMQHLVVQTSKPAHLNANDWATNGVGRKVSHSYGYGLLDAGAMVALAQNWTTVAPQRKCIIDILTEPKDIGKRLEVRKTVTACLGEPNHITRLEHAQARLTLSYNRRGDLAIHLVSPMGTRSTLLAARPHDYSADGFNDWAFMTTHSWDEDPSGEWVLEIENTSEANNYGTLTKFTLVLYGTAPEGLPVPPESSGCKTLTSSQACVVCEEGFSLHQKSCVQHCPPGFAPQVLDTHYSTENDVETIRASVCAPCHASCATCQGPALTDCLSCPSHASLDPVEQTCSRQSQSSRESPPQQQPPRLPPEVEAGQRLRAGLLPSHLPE

Ki (secreted, soluble furin [1]): 2.5 nM
Ki ratio (to R4R1- template) (secreted, soluble furin [1]): 1
Ki (secreted, soluble Kex2 [2]): 0.91 nM
Ki ratio (to R4R1- template) (secreted, soluble Kex2 [2]): 1
Ki (secreted, soluble furin [3]): 2.5 nM
Ki (human PC7): 1.3 nM
Ki (secreted, soluble Kex2 [4]): 0.91 nM
half-life (t1/2) of the complex (secreted, soluble furin [5]): ~1 h
half-life (t1/2) of the complex (secreted, soluble Kex2 [6]): ~1 h
fold higher affinity than L1-eglin (secreted, soluble furin [7]): 46000 fold
fold increase in affinity relative to M4R1-eglin (secreted, soluble furin [7]): 1430 fold
fold decrease in affinity relative to M4R1-eglin (secreted, soluble Kex2 [8]): 2.5 fold
fold stronger binding by Kex2 than by furin (secreted, soluble Kex2 [8]): ~3 fold
B1: R4R1-eglin (designed binder)
chain: SMGSELKSFPEVVGKTVDQAREYFTLHYPQYDVYFLPEGSRVTRDLRYNRVRVFYNPGTNVVNHVPHVG
notes: N-terminal Met removed; also called Tyr49-R4R1-; D33Y49
